Experimental data taken from paper PMC11488486.

Experiments:
[1] = biological target: UCHL1 R178Q (from pGEX-6p-1) (human) (UniProt P09936)
[2] = biological target: UCHL1, wild type (from pGEX-6p-1) (human) (UniProt P09936)

- KM of UCHL1-catalyzed hydrolysis of Ub-Rho (Michaelis-Menten kinetics) [1]: 0.17 µM
- KM of UCHL1-catalyzed hydrolysis of Ub-Rho (Michaelis-Menten kinetics) [2]: 0.03 µM
Substance: Ub-Rhodamine
